Our source for the Ki values is US20120214748A1, “NOVEL PEPTIDES, PROCESS FOR PREPARATION THEREOF, AND USE THEREOF” (priority 2009, published 2012).

The target of test [1] is MASP-2 CCP1-CCP2-SP (human), O00187. Briefly: enzyme inhibition, Z-L-Lys-SBzl substrate, tight-binding fit.
In test [2] the target is Trypsin. Described as above.
Test [3] concerns the target Thrombin. Briefly: enzyme inhibition, Z-Gly-Pro-Arg-pNa substrate, tight-binding fit.

Sequence of MASP-2 CCP1-CCP2-SP (human), O00187 (O00187 298-686 limits assumed): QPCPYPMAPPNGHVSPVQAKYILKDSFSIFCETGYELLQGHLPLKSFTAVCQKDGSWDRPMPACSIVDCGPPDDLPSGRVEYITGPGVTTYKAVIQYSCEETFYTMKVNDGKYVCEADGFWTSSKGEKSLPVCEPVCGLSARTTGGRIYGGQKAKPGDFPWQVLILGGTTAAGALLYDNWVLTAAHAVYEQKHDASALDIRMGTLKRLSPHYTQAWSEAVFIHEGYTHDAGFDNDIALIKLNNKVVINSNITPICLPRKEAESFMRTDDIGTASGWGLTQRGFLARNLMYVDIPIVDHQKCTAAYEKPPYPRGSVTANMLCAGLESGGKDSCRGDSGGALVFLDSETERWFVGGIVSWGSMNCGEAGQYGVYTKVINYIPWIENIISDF
Sequence of Trypsin (P00760 24-246): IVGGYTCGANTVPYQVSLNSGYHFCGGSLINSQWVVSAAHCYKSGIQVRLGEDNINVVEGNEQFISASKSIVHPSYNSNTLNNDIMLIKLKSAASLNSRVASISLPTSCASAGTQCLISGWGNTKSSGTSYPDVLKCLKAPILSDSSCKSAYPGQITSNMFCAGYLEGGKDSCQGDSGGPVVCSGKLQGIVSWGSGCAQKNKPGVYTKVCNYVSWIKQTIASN

The Ki is a dissociation constant, usually derived from enzyme kinetics or from competition with a known ligand. High values mean weaker binding, low ones tighter binding. GYCSRSYPPVCIPD (modifications not checked) [M2-6E]: the figures for the Ki in test [1], in test [2] and in test [3] were 0.18 µM, 1 µM and 550 µM, respectively.

Regarding GRCTKSIPPICFPD (modifications not checked) [wild-type SFTI (Sun Flower Trypsin Inhibitor)], the Ki in test [3] came to 140 µM.
